± gives the uncertainty stated by the source.
Test: self-splicing fitness, log relative to wild type (ln ratio); higher = more splicing; Tetrahymena group I intron in knt gene, E. coli kanamycin selection, DiMSum; sequences stand for … in CUCUCU…GGAGGGAAAAGUUAUCAGGCAUGCACCUGGUAGCUAGUCUUUAAACCAAUAGAUUGCAUCGGUUUAAAAGGCAAGACCGUCAAAUUGCGGGAAAGGGGUCAACAGCCGUUCAGUACCAAGUCUCAGGGGAAACUUUGAGAUGGCCUUGCAAAGGGUAUGGUAAUAAGCUGACGGACAUGGUCCUAACCACGCAGCCAAGUCCUAAGUCAACAGAUCUUCUGUUGAUAUGGAUGCAGUUCACAGACUAAAUGUCGGUCGGGGAAGAUGUAUUCUUCUCAUAAGAUAUAGUCGGACCUCUCCUUAAUGGGAGCUAGCGGAUGAAGUGAUGCAACACUGGAGCCGCUGGGAACUAAUUUGUAUGCGAAAGUAUAUUGAUUAGUUUUGGAGUACUCGUGGUCG
Procedure, shortened: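 Fitness was computed with DiMSum as the error-weighted combination of replicate fold changes, kanamycin versus none, each normalised to wild type. The library randomised all eight intron nucleotides of the P1ex region, with the intron placed in the knt kanamycin-resistance gene on pET-22b(+) in E. coli BL21(DE3). Six replicate transformations were grown overnight at 37°C or 30°C on LB agar with or without 25 μg/mL kanamycin, plus 100 μg/mL carbenicillin, 50 μM IPTG and 0.2% rhamnose. Pooled colonies were amplicon-sequenced on an Illumina HiSeq 2500.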

| Sequence | self-splicing fitness (ln) (30 °C) | self-splicing fitness (ln) (37 °C) |
| --- | --- | --- |
| AAAAAGCAAUAUUACGAAAG | -2.31 ± 0.098 | -1.03 ± 0.12 |
| AAAAAGCAAUAUUACGAUCA | -0.00996 ± 0.084 | -0.0134 ± 0.094 |
| AAAAAGCAAUAUUACGCCUG | -0.823 ± 0.09 | -0.000429 ± 0.12 |
| AAAAAGCAAUAUUACGCGAG | -0.943 ± 0.085 | -1.06 ± 0.11 |
| AAAAAGCAAUAUUACGCGGG | -2.76 ± 0.16 | -1.93 ± 0.15 |
| AAAAAGCAAUAUUACGCGUC | -2.31 ± 0.16 | -1.72 ± 0.16 |
| AAAAAGCAAUAUUACGCUAA | -2.36 ± 0.15 | -1.35 ± 0.13 |
| AAAAAGCAAUAUUACGCUCG | -0.161 ± 0.11 | 0.0542 ± 0.14 |
| AAAAAGCAAUAUUACGCUUG | -1.69 ± 0.087 | -0.744 ± 0.1 |
| AAAAAGCAAUAUUACGGACA | -0.0577 ± 0.11 | -0.0474 ± 0.12 |
| AAAAAGCAAUAUUACGGAGA | -3.49 ± 0.19 | -3.11 ± 0.18 |
| AAAAAGCAAUAUUACGGGCA | -0.543 ± 0.081 | -0.103 ± 0.088 |
| AAAAAGCAAUAUUACGGGGA | -1.74 ± 0.13 | -1.8 ± 0.13 |
| AAAAAGCAAUAUUACGUCAA | -1.8 ± 0.08 | -0.836 ± 0.073 |
| AAAAAGCAAUAUUACGUGAA | -1.24 ± 0.078 | -0.618 ± 0.11 |
| AAAAAGCAAUAUUACGUUCC | -1.3 ± 0.098 | -0.521 ± 0.14 |
| AAAAAGCAAUAUUACGUUGA | -2.63 ± 0.11 | -1.48 ± 0.12 |
| AAACAGCAAUAUUACGAACC | -2.56 ± 0.18 | -0.124 ± 0.17 |
| AAACAGCAAUAUUACGAAGC | -3.98 ± 0.2 | -2.75 ± 0.18 |
| AAACAGCAAUAUUACGAAGG | -3.85 ± 0.13 | -2.2 ± 0.15 |
| AAACAGCAAUAUUACGACCG | -1.6 ± 0.14 | 0.0387 ± 0.18 |
| AAACAGCAAUAUUACGAGAG | -2.76 ± 0.18 | -2.91 ± 0.16 |
| AAACAGCAAUAUUACGAGCC | -2.55 ± 0.2 | -1.75 ± 0.3 |
| AAACAGCAAUAUUACGAGCU | -1.25 ± 0.068 | -0.704 ± 0.086 |
| AAACAGCAAUAUUACGAGGU | -4.6 ± 0.26 | -2.53 ± 0.15 |
| AAACAGCAAUAUUACGAGUU | -1.94 ± 0.068 | -0.482 ± 0.075 |

| Sequence | self-splicing fitness (ln) (30 °C) | self-splicing fitness (ln) (37 °C) |
| --- | --- | --- |
| AAACAGCAAUAUUACGAUCC | -1.8 ± 0.088 | -0.41 ± 0.11 |
| AAACAGCAAUAUUACGCAUC | -2.82 ± 0.13 | -2.07 ± 0.11 |
| AAACAGCAAUAUUACGCCGG | -2.36 ± 0.12 | -1.67 ± 0.12 |
| AAACAGCAAUAUUACGCCUU | -1.66 ± 0.093 | -0.238 ± 0.1 |
| AAACAGCAAUAUUACGCGCU | -1.03 ± 0.072 | -0.289 ± 0.087 |
| AAACAGCAAUAUUACGCGGU | -3.32 ± 0.23 | -2.18 ± 0.17 |
| AAACAGCAAUAUUACGGAAU | -3.81 ± 0.16 | -2.4 ± 0.14 |
| AAACAGCAAUAUUACGGAUA | -2.99 ± 0.15 | -1.92 ± 0.14 |
| AAACAGCAAUAUUACGGCGG | -2.4 ± 0.088 | -1.35 ± 0.092 |
| AAACAGCAAUAUUACGGGCA | -1.86 ± 0.1 | -1.24 ± 0.1 |
| AAACAGCAAUAUUACGGGCG | -2.12 ± 0.09 | -1.41 ± 0.12 |
| AAACAGCAAUAUUACGGGGG | -3.28 ± 0.22 | -2.52 ± 0.19 |
| AAACAGCAAUAUUACGGUUC | -2.65 ± 0.078 | -2.6 ± 0.12 |
| AAACAGCAAUAUUACGUAAG | -1.23 ± 0.044 | -0.526 ± 0.065 |
| AAACAGCAAUAUUACGUAGA | -2.31 ± 0.1 | -0.368 ± 0.092 |
| AAACAGCAAUAUUACGUGAU | -2.18 ± 0.053 | -1.13 ± 0.072 |
| AAACAGCAAUAUUACGUGCA | -1.19 ± 0.068 | -0.303 ± 0.074 |
| AAACAGCAAUAUUACGUUAC | -3.19 ± 0.16 | -2.56 ± 0.26 |
| AAACAGCAAUAUUACGUUCG | -1.23 ± 0.051 | -0.286 ± 0.068 |
| AAAGAGCAAUAUUACGAAGA | -4.23 ± 0.46 | -1.64 ± 0.21 |
| AAAGAGCAAUAUUACGAAGC | -1.67 ± 0.21 | -2.04 ± 0.47 |
| AAAGAGCAAUAUUACGACAU | -1.897 ± 0.015 | -1.26 ± 0.034 |
| AAAGAGCAAUAUUACGACGA | -2.27 ± 0.23 | -2.57 ± 0.25 |
| AAAGAGCAAUAUUACGAGCC | -2.96 ± 0.35 |  |
| AAAGAGCAAUAUUACGAUUC | -2.3 ± 0.14 | -1.61 ± 0.14 |
| AAAGAGCAAUAUUACGAUUG | -4.1 ± 0.24 | -2.29 ± 0.21 |

| Sequence | self-splicing fitness (ln) (30 °C) | self-splicing fitness (ln) (37 °C) |
| --- | --- | --- |
| AAAGAGCAAUAUUACGCAUC | -3.52 ± 0.35 | -2.24 ± 0.35 |
| AAAGAGCAAUAUUACGCGGC |  | -3.08 ± 0.4 |
| AAAGAGCAAUAUUACGCGGU | -3.49 ± 0.18 | -1.49 ± 0.16 |
| AAAGAGCAAUAUUACGCGUA | -1.96 ± 0.18 | -1.61 ± 0.16 |
| AAAGAGCAAUAUUACGCUAA |  | -1.52 ± 0.28 |
| AAAGAGCAAUAUUACGCUGC | -3.15 ± 0.14 | -2.84 ± 0.21 |
| AAAGAGCAAUAUUACGGAUG | -4.57 ± 0.42 | -2.06 ± 0.23 |
| AAAGAGCAAUAUUACGGCCA | -3.01 ± 0.31 | -2.5 ± 0.29 |
| AAAGAGCAAUAUUACGGCUC | -2.64 ± 0.21 | -1.67 ± 0.21 |
| AAAGAGCAAUAUUACGGGCG | -2.3 ± 0.14 | -3.1 ± 0.47 |
| AAAGAGCAAUAUUACGGUUG | -3.84 ± 0.27 | -2.14 ± 0.25 |
| AAAGAGCAAUAUUACGUGAU | -2.95 ± 0.1 | -1.81 ± 0.12 |
| AAAGAGCAAUAUUACGUUGA | -2.75 ± 0.21 | -2.28 ± 0.26 |
| AAAUAGCAAUAUUACGACUU | 0.559 ± 0.099 | 0.387 ± 0.13 |
| AAAUAGCAAUAUUACGAGAA |  | -0.893 ± 0.23 |
| AAAUAGCAAUAUUACGAUUC | -0.544 ± 0.066 | -0.733 ± 0.1 |
| AAAUAGCAAUAUUACGCCGG | -1.6 ± 0.13 | -0.713 ± 0.15 |
| AAAUAGCAAUAUUACGCCUU | -0.206 ± 0.073 | 0.557 ± 0.1 |
| AAAUAGCAAUAUUACGCGUC | -2.19 ± 0.16 | -0.755 ± 0.19 |
| AAAUAGCAAUAUUACGCUAA | -2.19 ± 0.21 | -1.52 ± 0.2 |
| AAAUAGCAAUAUUACGCUCC | -1.48 ± 0.31 | 0.174 ± 0.42 |
| AAAUAGCAAUAUUACGCUCU | -0.111 ± 0.075 | -0.0401 ± 0.091 |
| AAAUAGCAAUAUUACGGACG | -0.725 ± 0.069 | -0.343 ± 0.096 |
| AAAUAGCAAUAUUACGGACU | 0.0218 ± 0.068 | 0.206 ± 0.091 |
| AAAUAGCAAUAUUACGGCUG | -0.833 ± 0.15 | -0.0574 ± 0.18 |

— the supplement of paper PMC7877785
